For five molecules, IC50 results are on record in US20230304010A1, “COMPOSITIONS AND METHODS FOR TREATING VIRAL INFECTIONS” (priority 2020, published 2023).

The term IC50 denotes the concentration that gives 50% inhibition. A high value points to weaker potency in that assay.

Assay [1] deals with SARS-CoV-2 Spike-Fc, Alpha (B1.1.7/United Kingdom) variant (SARS-CoV-2), P0DTC2.
Assay [2] has as its target SARS-CoV-2 Spike-Fc, Epsilon (B1429) variant (SARS-CoV-2), P0DTC2.
Assay [3] has as its target SARS-CoV-2 Spike-Fc, Delta (B1 617 2/India) variant (SARS-CoV-2), P0DTC2.
The target of assay [4] is SARS-CoV-2 Spike-Fc, Gamma (P1/Brazil) variant (SARS-CoV-2), P0DTC2.
Assay [5] addresses SARS-CoV-2 Spike-Fc, Beta (B1.351/South Africa) variant (SARS-CoV-2), P0DTC2.
The target in assay [6] is ACE2, Q9BYF1. Kind of assay: inhibitor screening kit; ACE2:SARS-CoV-2 Spike (Example 4 assay).
For assay [7], the target named is ACE2, Q9BYF1. In words: inhibitor screening kit; SARS-CoV-2 Spike:ACE2 (Example 3 assay).

Chain of ACE2, Q9BYF1 (Q9BYF1 18-740 limits assumed): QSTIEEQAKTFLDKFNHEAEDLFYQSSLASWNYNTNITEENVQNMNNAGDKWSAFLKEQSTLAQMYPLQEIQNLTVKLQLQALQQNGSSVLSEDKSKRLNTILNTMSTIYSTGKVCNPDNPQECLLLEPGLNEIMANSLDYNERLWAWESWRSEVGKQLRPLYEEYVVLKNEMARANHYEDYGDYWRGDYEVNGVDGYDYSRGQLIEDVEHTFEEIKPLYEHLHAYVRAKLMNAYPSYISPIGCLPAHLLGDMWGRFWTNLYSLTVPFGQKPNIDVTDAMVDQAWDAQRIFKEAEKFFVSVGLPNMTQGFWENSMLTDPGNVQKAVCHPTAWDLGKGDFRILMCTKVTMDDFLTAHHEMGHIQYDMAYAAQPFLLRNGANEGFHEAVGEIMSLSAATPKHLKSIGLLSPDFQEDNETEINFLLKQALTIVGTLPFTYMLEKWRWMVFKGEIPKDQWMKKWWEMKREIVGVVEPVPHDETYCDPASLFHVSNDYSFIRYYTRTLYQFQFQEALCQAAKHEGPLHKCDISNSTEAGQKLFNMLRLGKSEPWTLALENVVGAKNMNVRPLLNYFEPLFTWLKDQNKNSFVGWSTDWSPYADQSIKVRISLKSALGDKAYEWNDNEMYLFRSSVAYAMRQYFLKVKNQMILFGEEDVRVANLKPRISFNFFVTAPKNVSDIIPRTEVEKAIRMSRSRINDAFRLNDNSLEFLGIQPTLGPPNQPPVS

As to EQAKTFLDKFNHEAEDLFLWRALWRLWRSLWRLLWK (modifications not checked) [Seq33 (LNCOV-18)], the IC50 in assay [1] stood at 17.8 nM; in assay [2] it was 31.4 nM; in assay [3], 25.7 nM; in assay [4], 20.2 nM; in assay [5] it was 28.8 nM.

Turning to GNYNYLYRLLWRALWRLWRSLWRLLWK (modifications not checked) [seq14 (LNCOV-12)], the IC50 with ACE2, Q9BYF1 [6] was more than 10000 nM; in the assay with ACE2, Q9BYF1 [7], more than 10000 nM.

As for KVGGNYNYKLWRALWRLWRSLWRLLWK (modifications not checked) [Seq13 (LNCOV-11)], the IC50 is more than 10000 nM with ACE2, Q9BYF1 [6] and more than 10000 nM with ACE2, Q9BYF1 [7].

With KTFLDKFNHEAEDLFPGPKWSAFLKEQSTLAQMYG (modifications not checked) [Seq28 (LNCOV-20)], the IC50 was found to be 24.6 nM in assay [1]; 28.8 nM in assay [2]; 29.2 nM in assay [3]; 41.7 nM in assay [4]; 31.5 nM in assay [5].

VEGFNCYFLWRALWRLWRSLWRLLWK (modifications not checked) [Seq18 (LNCOV-16)]: the IC50 with ACE2, Q9BYF1 [6] was more than 10000 nM; with ACE2, Q9BYF1 [7] it was more than 10000 nM.
